The experiment concerns the target DDA1 (human, UniProt Q9BW61 1-102). The experiment in a line: crystal structure.

The text below walks through data of doi:10.1101/737510 (bioRxiv, 2019).

B1: DDB1(ΔBPB) (natural protein)
chain: MSYNYVVTAQKPTAVNGCVTGHFTSAEDLNLLIAKNTRLEIYVVTAEGLRPVKEVGMYGKIAVMELFRPKGESKDLLFILTAKYNACILEYKQSGESIDIITRAHGNVQDRIGRPSETGIIGIIDPECRMIGLRLYDGLFKVIPLDRDNKELKAFNIRLEELHVIDVKFLYGCQAPTICFVYQDPQGRHVKTYEVSLREKEFNKGPWKQENVEAEASMVIAVPEPFGGAIIIGQESITYHNGDKYLAIAPPIIKQSTIVCHNRVDPNGSRYLLGDMEGRLFMLLLEKEEQMDGTVTLKDLRVELLGETSIAECLTYLDNGVVFVGSRLGDSQLVKLNVDSNEQGSYVVAMETFTNLGPIVDMCVVDLERQGQGQLVTCSGAFKEGSLRIIRNGIGIHGTIDEIQKLHIRTVPLYESPRKICYQEVSQCFGVLSSRIEVQDTSGGTTALRPSASTQALSSSVSSSKLFSSSTAPHETSFGEEVEVHNLLIIDQHTFEVLHAHQFLQNEYALSLVSCKLGKDPNTYFIVGTAMVYPEEAEPKQGRIVVFQYSDGKLQTVAEKEVKGAVYSMVEFNGKLLASINSTVRLYEWTTEKELRTECNHYNNIMALYLKTKGDFILVGDLMRSVLLLAYKPMEGNFEEIARDFNPNWMSAVEILDDDNFLGAENAFNLFVCQKDSAATTDEERQHLQEVGLFHLGEFVNVFCHGSLVMQNLGETSTPTQGSVLFGTVNGMIGLVTSLSESWYNLLLDMQNRLNKVIKSVGKIEHSFWRSFHTERKTEPATGFIDGDLIESFLDISRPKMQEVVANLQYDDGSGMKREATADDLIKVVEELTRIH
As for B1, the binding result is on record as “binds”.
